The supplement of paper PMC10065799, “High-throughput profiling of sequence recognition by tyrosine kinases and SH2 domains using bacterial peptide display” (eLife, 2023)

Target: MERTK (UniProt Q12866)
Test: phosphorylation enrichment, bacterial display (enrichment ratio); higher = better substrate or ligand; peptides without Tyr show the background
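Throughout, for SH2 binding enrichment of the phosphorylated peptide, bacterial display: peptide library displayed on the E. coli surface as eCPX fusions, selected cells deep-sequenced, score is each peptide's frequency after selection divided by its frequency in the input.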
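Throughout, for phosphorylation enrichment, bacterial display: 11-residue human phosphosite peptides and single-mutation variants displayed on the E. coli surface, counted by deep sequencing, each peptide's frequency after selection divided by its frequency in the unselected input library; frequency after pTyr selection over input frequency; kinase dosed for 20-30% of maximal phosphorylation in three min.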

Sequence of MERTK (Q12866 whole entry, looked up): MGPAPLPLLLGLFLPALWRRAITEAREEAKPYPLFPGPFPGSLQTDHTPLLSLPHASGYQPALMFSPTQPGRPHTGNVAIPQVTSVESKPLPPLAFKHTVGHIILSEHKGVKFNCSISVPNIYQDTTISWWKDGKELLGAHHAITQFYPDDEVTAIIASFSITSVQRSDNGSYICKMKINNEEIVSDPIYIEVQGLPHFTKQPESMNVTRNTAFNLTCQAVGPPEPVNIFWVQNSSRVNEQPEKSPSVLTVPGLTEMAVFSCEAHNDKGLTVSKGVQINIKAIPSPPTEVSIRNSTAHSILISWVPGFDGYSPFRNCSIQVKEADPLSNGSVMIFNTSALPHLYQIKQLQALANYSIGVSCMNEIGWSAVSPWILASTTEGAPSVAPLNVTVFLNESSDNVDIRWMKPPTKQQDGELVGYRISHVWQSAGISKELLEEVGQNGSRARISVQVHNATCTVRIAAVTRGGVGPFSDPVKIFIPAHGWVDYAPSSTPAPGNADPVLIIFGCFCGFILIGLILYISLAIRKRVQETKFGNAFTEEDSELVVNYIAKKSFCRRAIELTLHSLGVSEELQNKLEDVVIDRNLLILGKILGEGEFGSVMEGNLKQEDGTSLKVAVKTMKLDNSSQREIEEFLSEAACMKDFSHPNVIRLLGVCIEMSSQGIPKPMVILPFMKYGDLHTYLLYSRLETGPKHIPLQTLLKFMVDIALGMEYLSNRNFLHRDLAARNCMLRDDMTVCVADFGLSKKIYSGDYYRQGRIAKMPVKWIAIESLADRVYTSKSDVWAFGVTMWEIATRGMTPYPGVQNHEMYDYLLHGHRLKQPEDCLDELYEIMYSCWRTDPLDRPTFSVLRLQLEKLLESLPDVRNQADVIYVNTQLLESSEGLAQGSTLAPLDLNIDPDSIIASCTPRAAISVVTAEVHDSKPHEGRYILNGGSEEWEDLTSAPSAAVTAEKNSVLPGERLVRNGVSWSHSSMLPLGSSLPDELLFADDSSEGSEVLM

Question: How did the phosphorylation enrichment turn out when DKGTLYIAEQI [PLBD1_Y375_V377A] was run?
Answer: 0.346

Question: For KMGNIYRTEFG [MRPL3_Y265_YF], which phosphorylation enrichment is on record?
Answer: 0.477

Question: Which phosphorylation enrichment does the source give for RLNAIYQNNLT [GSR_Y158] here?
Answer: 0.414

Target: Jak2 (UniProt O60674)
Test: as above

Question: Which phosphorylation enrichment does the source give for DKGTLYIAEQI [PLBD1_Y375_V377A] here?
Answer: 0.743

Question: Which phosphorylation enrichment does the source give for KMGNIYRTEFG [MRPL3_Y265_YF] here?
Answer: 0.448

Question: For RLNAIYQNNLT [GSR_Y158], which phosphorylation enrichment is on record?
Answer: 0.565

Target: Hck (UniProt P08631)
Test: as above

Sequence of Hck (P08631 whole entry, looked up): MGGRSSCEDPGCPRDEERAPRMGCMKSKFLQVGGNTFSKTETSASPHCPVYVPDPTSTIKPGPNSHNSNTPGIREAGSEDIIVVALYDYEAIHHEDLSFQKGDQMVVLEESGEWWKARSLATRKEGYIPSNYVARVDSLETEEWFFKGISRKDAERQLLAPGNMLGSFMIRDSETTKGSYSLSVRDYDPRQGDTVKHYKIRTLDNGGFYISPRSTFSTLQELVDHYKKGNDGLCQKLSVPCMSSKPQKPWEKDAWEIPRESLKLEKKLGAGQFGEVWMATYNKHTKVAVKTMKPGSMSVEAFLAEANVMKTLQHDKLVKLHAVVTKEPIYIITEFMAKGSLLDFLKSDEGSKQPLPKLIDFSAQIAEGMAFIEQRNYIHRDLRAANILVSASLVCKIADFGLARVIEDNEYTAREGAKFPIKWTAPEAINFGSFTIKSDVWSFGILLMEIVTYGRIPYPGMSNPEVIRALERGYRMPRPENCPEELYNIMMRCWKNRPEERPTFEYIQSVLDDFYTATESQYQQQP

Question: For DKGTLYIAEQI [PLBD1_Y375_V377A], which phosphorylation enrichment is on record?
Answer: 0.447

Question: Which phosphorylation enrichment does the source give for KMGNIYRTEFG [MRPL3_Y265_YF] here?
Answer: 0.488

Question: For RLNAIYQNNLT [GSR_Y158], which phosphorylation enrichment is on record?
Answer: 1.25

Target: Fes (UniProt P07332)
Test: as above

Sequence of Fes (P07332 whole entry, looked up): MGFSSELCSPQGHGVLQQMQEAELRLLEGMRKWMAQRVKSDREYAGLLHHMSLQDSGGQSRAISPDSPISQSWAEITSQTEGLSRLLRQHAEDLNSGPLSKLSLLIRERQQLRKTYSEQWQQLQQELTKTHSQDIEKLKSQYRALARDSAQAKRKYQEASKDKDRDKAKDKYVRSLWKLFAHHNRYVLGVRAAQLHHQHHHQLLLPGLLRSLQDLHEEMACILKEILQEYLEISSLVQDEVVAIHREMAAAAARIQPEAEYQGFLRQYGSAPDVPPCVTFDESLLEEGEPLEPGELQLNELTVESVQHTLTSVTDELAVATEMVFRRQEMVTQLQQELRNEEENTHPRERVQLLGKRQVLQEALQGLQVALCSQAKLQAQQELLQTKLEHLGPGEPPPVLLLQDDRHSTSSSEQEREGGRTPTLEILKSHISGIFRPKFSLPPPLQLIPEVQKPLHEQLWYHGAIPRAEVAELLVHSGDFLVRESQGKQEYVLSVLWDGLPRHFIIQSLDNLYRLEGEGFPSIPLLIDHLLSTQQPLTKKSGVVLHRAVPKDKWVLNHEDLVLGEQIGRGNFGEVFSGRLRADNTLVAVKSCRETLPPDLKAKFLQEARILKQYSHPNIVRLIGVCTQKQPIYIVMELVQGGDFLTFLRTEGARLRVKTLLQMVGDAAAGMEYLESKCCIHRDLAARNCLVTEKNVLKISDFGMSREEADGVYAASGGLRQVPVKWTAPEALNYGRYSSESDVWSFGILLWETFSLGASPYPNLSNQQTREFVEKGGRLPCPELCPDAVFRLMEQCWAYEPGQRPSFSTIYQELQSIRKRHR

Question: Which phosphorylation enrichment does the source give for DKGTLYIAEQI [PLBD1_Y375_V377A] here?
Answer: 0.887

Question: Which phosphorylation enrichment does the source give for KMGNIYRTEFG [MRPL3_Y265_YF] here?
Answer: 0.5

Question: RLNAIYQNNLT [GSR_Y158] was tested. Which phosphorylation enrichment did it give?
Answer: 0.75

Target: EPHB1 (UniProt P54762)
Test: as above

Sequence of EPHB1 (P54762 whole entry, looked up): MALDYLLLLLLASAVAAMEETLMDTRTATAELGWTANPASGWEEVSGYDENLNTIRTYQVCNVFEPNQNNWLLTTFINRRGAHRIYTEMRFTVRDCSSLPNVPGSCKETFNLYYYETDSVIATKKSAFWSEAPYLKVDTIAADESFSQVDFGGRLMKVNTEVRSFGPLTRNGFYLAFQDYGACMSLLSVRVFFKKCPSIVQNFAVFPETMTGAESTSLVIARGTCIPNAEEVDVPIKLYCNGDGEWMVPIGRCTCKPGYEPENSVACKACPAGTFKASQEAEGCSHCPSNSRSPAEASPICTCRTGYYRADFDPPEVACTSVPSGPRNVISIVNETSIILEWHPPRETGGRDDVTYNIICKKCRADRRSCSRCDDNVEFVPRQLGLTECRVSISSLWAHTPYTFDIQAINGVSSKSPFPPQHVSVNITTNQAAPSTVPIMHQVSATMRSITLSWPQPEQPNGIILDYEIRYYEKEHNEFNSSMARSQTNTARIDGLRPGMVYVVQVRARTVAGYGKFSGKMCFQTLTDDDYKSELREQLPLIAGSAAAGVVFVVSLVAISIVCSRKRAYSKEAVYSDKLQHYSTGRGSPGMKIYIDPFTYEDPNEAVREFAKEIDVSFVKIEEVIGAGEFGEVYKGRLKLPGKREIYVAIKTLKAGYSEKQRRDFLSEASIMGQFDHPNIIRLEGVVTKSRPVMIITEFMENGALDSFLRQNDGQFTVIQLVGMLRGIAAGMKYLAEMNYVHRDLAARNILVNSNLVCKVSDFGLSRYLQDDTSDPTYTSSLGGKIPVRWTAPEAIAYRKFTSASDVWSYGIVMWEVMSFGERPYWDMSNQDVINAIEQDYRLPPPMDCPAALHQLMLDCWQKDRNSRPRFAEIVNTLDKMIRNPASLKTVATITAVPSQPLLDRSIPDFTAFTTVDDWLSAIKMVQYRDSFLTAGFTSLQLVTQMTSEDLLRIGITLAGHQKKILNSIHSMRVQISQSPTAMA

Question: DKGTLYIAEQI [PLBD1_Y375_V377A] was tested. Which phosphorylation enrichment did it give?
Answer: 0.565

Question: Which phosphorylation enrichment does the source give for KMGNIYRTEFG [MRPL3_Y265_YF] here?
Answer: 0.337

Question: For RLNAIYQNNLT [GSR_Y158], which phosphorylation enrichment is on record?
Answer: 0.632

Target: EPHB2 (UniProt P29323)
Test: as above

Question: For DKGTLYIAEQI [PLBD1_Y375_V377A], which phosphorylation enrichment is on record?
Answer: 0.446

Question: With KMGNIYRTEFG [MRPL3_Y265_YF] as the sequence, how does the phosphorylation enrichment read?
Answer: 0.34

Question: With RLNAIYQNNLT [GSR_Y158] as the sequence, how does the phosphorylation enrichment read?
Answer: 0.609

Test system: AncSZ
Test: as above

Question: How did the phosphorylation enrichment turn out when DKGTLYIAEQI [PLBD1_Y375_V377A] was run?
Answer: 0.763

Question: KMGNIYRTEFG [MRPL3_Y265_YF] was tested. Which phosphorylation enrichment did it give?
Answer: 0.535

Question: RLNAIYQNNLT [GSR_Y158] was tested. Which phosphorylation enrichment did it give?
Answer: 0.813

Test system: c-Src
Test: as above

Question: DKGTLYIAEQI [PLBD1_Y375_V377A] was tested. Which phosphorylation enrichment did it give?
Answer: 0.383

Question: How did the phosphorylation enrichment turn out when KMGNIYRTEFG [MRPL3_Y265_YF] was run?
Answer: 0.532

Question: Which phosphorylation enrichment does the source give for RLNAIYQNNLT [GSR_Y158] here?
Answer: 1.08

Target: Fyn (UniProt P06241)
Test: as above

Question: Which phosphorylation enrichment does the source give for DKGTLYIAEQI [PLBD1_Y375_V377A] here?
Answer: 0.459

Question: For KMGNIYRTEFG [MRPL3_Y265_YF], which phosphorylation enrichment is on record?
Answer: 0.536

Question: With RLNAIYQNNLT [GSR_Y158] as the sequence, how does the phosphorylation enrichment read?
Answer: 0.772

Test system: Fer (mouse)
Test: as above

Question: For DKGTLYIAEQI [PLBD1_Y375_V377A], which phosphorylation enrichment is on record?
Answer: 0.372

Question: With KMGNIYRTEFG [MRPL3_Y265_YF] as the sequence, how does the phosphorylation enrichment read?
Answer: 0.393

Question: With RLNAIYQNNLT [GSR_Y158] as the sequence, how does the phosphorylation enrichment read?
Answer: 1.06

Target: FGFR3 (UniProt P22607)
Test: as above

Sequence of FGFR3 (P22607 whole entry, looked up): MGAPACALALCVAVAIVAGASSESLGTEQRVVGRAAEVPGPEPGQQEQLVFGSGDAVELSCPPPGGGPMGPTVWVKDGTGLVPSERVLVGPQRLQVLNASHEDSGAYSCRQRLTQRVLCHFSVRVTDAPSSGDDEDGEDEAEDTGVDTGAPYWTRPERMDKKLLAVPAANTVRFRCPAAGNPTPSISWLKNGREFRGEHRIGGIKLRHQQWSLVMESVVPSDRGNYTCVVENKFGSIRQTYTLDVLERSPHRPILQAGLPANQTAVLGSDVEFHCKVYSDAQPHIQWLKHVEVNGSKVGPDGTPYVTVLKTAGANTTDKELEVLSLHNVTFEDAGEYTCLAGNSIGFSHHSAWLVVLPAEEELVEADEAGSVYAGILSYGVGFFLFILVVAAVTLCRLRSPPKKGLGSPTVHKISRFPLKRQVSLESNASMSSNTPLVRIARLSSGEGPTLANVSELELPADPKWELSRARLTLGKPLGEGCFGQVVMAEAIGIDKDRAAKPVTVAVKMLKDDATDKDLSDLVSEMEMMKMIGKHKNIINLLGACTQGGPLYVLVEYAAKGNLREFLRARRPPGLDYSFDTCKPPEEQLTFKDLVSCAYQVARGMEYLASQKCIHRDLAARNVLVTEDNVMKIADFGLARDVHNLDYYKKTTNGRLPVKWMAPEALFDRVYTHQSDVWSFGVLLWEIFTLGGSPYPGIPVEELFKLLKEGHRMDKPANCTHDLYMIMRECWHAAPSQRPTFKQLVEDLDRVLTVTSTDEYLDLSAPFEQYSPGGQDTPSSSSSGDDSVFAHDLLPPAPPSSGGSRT

Question: With DKGTLYIAEQI [PLBD1_Y375_V377A] as the sequence, how does the phosphorylation enrichment read?
Answer: 0.666

Question: KMGNIYRTEFG [MRPL3_Y265_YF] was tested. Which phosphorylation enrichment did it give?
Answer: 0.514

Question: With RLNAIYQNNLT [GSR_Y158] as the sequence, how does the phosphorylation enrichment read?
Answer: 0.665

Target: FGFR1 (UniProt P11362)
Test: as above

Sequence of FGFR1 (P11362 whole entry, looked up): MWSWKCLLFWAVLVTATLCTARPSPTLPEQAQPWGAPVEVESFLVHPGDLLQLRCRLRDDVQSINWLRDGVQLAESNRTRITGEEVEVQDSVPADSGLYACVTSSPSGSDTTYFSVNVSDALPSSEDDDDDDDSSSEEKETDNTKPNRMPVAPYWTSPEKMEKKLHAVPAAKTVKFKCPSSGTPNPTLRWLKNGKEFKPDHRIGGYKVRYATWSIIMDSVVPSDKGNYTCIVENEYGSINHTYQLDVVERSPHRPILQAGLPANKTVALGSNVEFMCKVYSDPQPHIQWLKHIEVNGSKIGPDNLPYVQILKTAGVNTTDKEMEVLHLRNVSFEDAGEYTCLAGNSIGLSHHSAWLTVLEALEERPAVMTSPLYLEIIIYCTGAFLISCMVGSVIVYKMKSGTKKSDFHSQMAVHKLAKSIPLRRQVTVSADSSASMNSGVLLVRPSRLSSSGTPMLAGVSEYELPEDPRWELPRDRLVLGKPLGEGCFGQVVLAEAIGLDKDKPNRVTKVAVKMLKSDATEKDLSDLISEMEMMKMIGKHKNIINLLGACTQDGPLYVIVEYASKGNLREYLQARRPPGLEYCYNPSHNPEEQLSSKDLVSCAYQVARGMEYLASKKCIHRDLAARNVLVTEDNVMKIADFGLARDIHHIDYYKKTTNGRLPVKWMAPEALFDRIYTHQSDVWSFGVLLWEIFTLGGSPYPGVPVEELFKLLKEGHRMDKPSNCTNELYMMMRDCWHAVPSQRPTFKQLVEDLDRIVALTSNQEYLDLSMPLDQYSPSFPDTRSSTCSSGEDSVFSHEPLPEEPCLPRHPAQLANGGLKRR

Question: How did the phosphorylation enrichment turn out when DKGTLYIAEQI [PLBD1_Y375_V377A] was run?
Answer: 0.441

Question: For KMGNIYRTEFG [MRPL3_Y265_YF], which phosphorylation enrichment is on record?
Answer: 0.482

Question: RLNAIYQNNLT [GSR_Y158] was tested. Which phosphorylation enrichment did it give?
Answer: 0.502

Test system: c-Abl (mouse)
Test: as above

Question: For DKGTLYIAEQI [PLBD1_Y375_V377A], which phosphorylation enrichment is on record?
Answer: 0.65

Question: Which phosphorylation enrichment does the source give for KMGNIYRTEFG [MRPL3_Y265_YF] here?
Answer: 0.471

Question: For RLNAIYQNNLT [GSR_Y158], which phosphorylation enrichment is on record?
Answer: 0.539

Target: c-Src SH2
Test: SH2 binding enrichment of the phosphorylated peptide, bacterial display (enrichment ratio); higher = better substrate or ligand; peptides without Tyr show the background

Question: Which SH2 binding enrichment does the source give for DKGTLYIAEQI [PLBD1_Y375_V377A] here?
Answer: 0.44

Question: Which SH2 binding enrichment does the source give for KMGNIYRTEFG [MRPL3_Y265_YF] here?
Answer: 0.485

Question: For RLNAIYQNNLT [GSR_Y158], which SH2 binding enrichment is on record?
Answer: 0.796

Target: Grb2 SH2 (UniProt P62993)
Test: as above

Question: Which SH2 binding enrichment does the source give for DKGTLYIAEQI [PLBD1_Y375_V377A] here?
Answer: 0.664

Question: Which SH2 binding enrichment does the source give for KMGNIYRTEFG [MRPL3_Y265_YF] here?
Answer: 0.672

Question: Which SH2 binding enrichment does the source give for RLNAIYQNNLT [GSR_Y158] here?
Answer: 5.31

Target: SHP2-C SH2
Test: as above

Question: How did the SH2 binding enrichment turn out when DKGTLYIAEQI [PLBD1_Y375_V377A] was run?
Answer: 0.54

Question: KMGNIYRTEFG [MRPL3_Y265_YF] was tested. Which SH2 binding enrichment did it give?
Answer: 0.652

Question: Which SH2 binding enrichment does the source give for RLNAIYQNNLT [GSR_Y158] here?
Answer: 0.986
